Each sequence was assayed against FGFR3 (UniProt P22607) (assay: phosphorylation enrichment, bacterial display (enrichment ratio); higher = better substrate or ligand; peptides without Tyr show the background).
FGFR3, sequence (P22607 whole entry, looked up): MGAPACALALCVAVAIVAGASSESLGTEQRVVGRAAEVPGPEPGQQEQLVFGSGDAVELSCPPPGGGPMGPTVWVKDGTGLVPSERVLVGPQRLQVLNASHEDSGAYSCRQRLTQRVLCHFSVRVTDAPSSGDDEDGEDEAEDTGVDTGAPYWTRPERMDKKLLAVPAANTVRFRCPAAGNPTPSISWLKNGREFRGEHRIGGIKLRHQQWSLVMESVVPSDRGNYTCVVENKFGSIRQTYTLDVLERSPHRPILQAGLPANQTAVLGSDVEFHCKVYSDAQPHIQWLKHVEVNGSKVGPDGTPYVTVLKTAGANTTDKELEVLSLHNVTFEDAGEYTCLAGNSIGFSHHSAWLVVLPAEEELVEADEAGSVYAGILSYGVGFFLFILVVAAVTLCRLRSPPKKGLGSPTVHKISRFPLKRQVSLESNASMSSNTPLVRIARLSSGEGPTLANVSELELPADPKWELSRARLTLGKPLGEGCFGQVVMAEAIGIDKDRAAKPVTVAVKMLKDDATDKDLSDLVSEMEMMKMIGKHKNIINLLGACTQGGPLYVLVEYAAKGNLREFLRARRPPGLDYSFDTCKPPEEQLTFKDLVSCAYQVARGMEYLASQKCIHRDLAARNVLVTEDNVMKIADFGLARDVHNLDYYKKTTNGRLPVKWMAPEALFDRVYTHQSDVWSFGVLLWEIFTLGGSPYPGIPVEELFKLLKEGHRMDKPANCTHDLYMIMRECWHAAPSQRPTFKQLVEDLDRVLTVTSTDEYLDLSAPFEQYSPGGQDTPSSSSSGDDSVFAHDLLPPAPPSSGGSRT
For KNNDGYTDFAE [MCFD2_Y135_I136T_YF], the phosphorylation enrichment was 0.732. With LITTLYISFLG [KCNQ1_Y267_G269S] the phosphorylation enrichment was 1.06. FKEIVYAVSSD [DCX_Y70_G67E] showed a phosphorylation enrichment of 0.809. In the case of RGKDSYETSQL [SPP1_Y225], the phosphorylation enrichment is reported as 0.697. LKKLEYLNLAL [LRRC6_Y70] gave a phosphorylation enrichment of 1.14. With QNAGDYFDLFG [PTPN11_Y62_T59A_YF] the phosphorylation enrichment was 24.5. With QSHKVYVQHLL [POR_Y604] the phosphorylation enrichment was 0.977. IHSGIYYKPES [L2HGDH_Y102] was tested, and the phosphorylation enrichment was 1.38. Work on TEAEPYFCSLR [NPHS1_Y1138_R1140C_YF] yielded a phosphorylation enrichment of 0.698. For PDNEPYIFKVF [PIK3AP1_Y553], the phosphorylation enrichment was 1.5. For LKGQVYILVRE [ASS1_Y359_G362V], the phosphorylation enrichment was 0.982. Work on RNAAEYLLSSG [ABL1_Y139] yielded a phosphorylation enrichment of 0.446. EDGCIYPGTIA [SMN1_Y109_A111G] was tested, and the phosphorylation enrichment was 0.856. Work on VNKIFHPDFIV [LIG3_Y768_Y768H_YF] yielded a phosphorylation enrichment of 0.547. Work on ALKWGYTVKGI [OAT_Y158_R154L] yielded a phosphorylation enrichment of 0.72. GISDEYHVIRH [GCDH_Y398] gave a phosphorylation enrichment of 2.26. Work on DFFDLYGGQKF [PTPN11_Y66_E69Q_YF] yielded a phosphorylation enrichment of 0.715. With FPLAEYTEVKT [ALDH1A3_Y497_A493P_YF] the phosphorylation enrichment was 0.82. For VSSSDYFSFVL [USP24_Y2138_Y2134S], the phosphorylation enrichment was 10.5. In the case of QEGPEYWDQNT [HLA-A_Y83_E87N], the phosphorylation enrichment is reported as 1.14. LSDGPYSNSFE [EPOR_Y485_P488S_YF] was tested, and the phosphorylation enrichment was 0.976. Sequence SSMIDYNTLEK [MYOC_Y479_P481T] has a phosphorylation enrichment of 0.568. GEDEPYSEPYA [APBA1_Y183] was tested, and the phosphorylation enrichment was 0.756. Sequence NWGKKYPTCNS [PTPRZ1_Y53] has a phosphorylation enrichment of 0.603. HEVHIYEKSGA [ARPC1B_Y35] was tested, and the phosphorylation enrichment was 0.993. Work on FSAPNYCYRCG [PPP2CA_Y265] yielded a phosphorylation enrichment of 0.45. In the case of YQSKHYACIRQ [TIMP3_Y182], the phosphorylation enrichment is reported as 0.45. In the case of HNVAIYEGFAL [ACTC1_Y168_P166A_YF], the phosphorylation enrichment is reported as 0.781. Sequence ILGTYYETGSI [PAX2_Y73_R71T] has a phosphorylation enrichment of 8.15. ILGTFYETGSI [PAX2_Y73_R71T_YF] was tested, and the phosphorylation enrichment was 0.526. In the case of FESPRYLQVHI [FANCA_Y488], the phosphorylation enrichment is reported as 0.61. For REEIKYMLWLS [OTC_Y55_G50R], the phosphorylation enrichment was 1.4. With ANVKWYRSGRE the phosphorylation enrichment was 0.886.

The sequences below were run on Fer (mouse) in the same assay as above.
KNNDGYTDFAE [MCFD2_Y135_I136T_YF] was tested, and the phosphorylation enrichment was 0.529. LITTLYISFLG [KCNQ1_Y267_G269S] was tested, and the phosphorylation enrichment was 0.757. FKEIVYAVSSD [DCX_Y70_G67E] was tested, and the phosphorylation enrichment was 0.587. Work on RGKDSYETSQL [SPP1_Y225] yielded a phosphorylation enrichment of 0.594. LKKLEYLNLAL [LRRC6_Y70] showed a phosphorylation enrichment of 0.549. Sequence QNAGDYFDLFG [PTPN11_Y62_T59A_YF] has a phosphorylation enrichment of 0.681. In the case of QSHKVYVQHLL [POR_Y604], the phosphorylation enrichment is reported as 0.742. Sequence IHSGIYYKPES [L2HGDH_Y102] has a phosphorylation enrichment of 0.943. TEAEPYFCSLR [NPHS1_Y1138_R1140C_YF] was tested, and the phosphorylation enrichment was 0.466. Sequence PDNEPYIFKVF [PIK3AP1_Y553] has a phosphorylation enrichment of 0.647. Work on LKGQVYILVRE [ASS1_Y359_G362V] yielded a phosphorylation enrichment of 0.328. In the case of RNAAEYLLSSG [ABL1_Y139], the phosphorylation enrichment is reported as 0.596. EDGCIYPGTIA [SMN1_Y109_A111G] showed a phosphorylation enrichment of 0.555. VNKIFHPDFIV [LIG3_Y768_Y768H_YF] gave a phosphorylation enrichment of 0.397. With ALKWGYTVKGI [OAT_Y158_R154L] the phosphorylation enrichment was 0.445. For GISDEYHVIRH [GCDH_Y398], the phosphorylation enrichment was 0.405. For DFFDLYGGQKF [PTPN11_Y66_E69Q_YF], the phosphorylation enrichment was 0.82. In the case of FPLAEYTEVKT [ALDH1A3_Y497_A493P_YF], the phosphorylation enrichment is reported as 0.516. VSSSDYFSFVL [USP24_Y2138_Y2134S] showed a phosphorylation enrichment of 1.1. In the case of QEGPEYWDQNT [HLA-A_Y83_E87N], the phosphorylation enrichment is reported as 0.802. Work on LSDGPYSNSFE [EPOR_Y485_P488S_YF] yielded a phosphorylation enrichment of 1.36. Work on SSMIDYNTLEK [MYOC_Y479_P481T] yielded a phosphorylation enrichment of 0.453. With GEDEPYSEPYA [APBA1_Y183] the phosphorylation enrichment was 0.618. Sequence NWGKKYPTCNS [PTPRZ1_Y53] has a phosphorylation enrichment of 0.485. For HEVHIYEKSGA [ARPC1B_Y35], the phosphorylation enrichment was 1.03. In the case of FSAPNYCYRCG [PPP2CA_Y265], the phosphorylation enrichment is reported as 0.327. For YQSKHYACIRQ [TIMP3_Y182], the phosphorylation enrichment was 0.554. In the case of HNVAIYEGFAL [ACTC1_Y168_P166A_YF], the phosphorylation enrichment is reported as 17. For ILGTYYETGSI [PAX2_Y73_R71T], the phosphorylation enrichment was 0.645. In the case of ILGTFYETGSI [PAX2_Y73_R71T_YF], the phosphorylation enrichment is reported as 0.749. In the case of FESPRYLQVHI [FANCA_Y488], the phosphorylation enrichment is reported as 0.676. Work on REEIKYMLWLS [OTC_Y55_G50R] yielded a phosphorylation enrichment of 0.955. Work on ANVKWYRSGRE yielded a phosphorylation enrichment of 0.402.

Each sequence was assayed against Fes (UniProt P07332) in the same assay as above.
Fes, sequence (P07332 whole entry, looked up): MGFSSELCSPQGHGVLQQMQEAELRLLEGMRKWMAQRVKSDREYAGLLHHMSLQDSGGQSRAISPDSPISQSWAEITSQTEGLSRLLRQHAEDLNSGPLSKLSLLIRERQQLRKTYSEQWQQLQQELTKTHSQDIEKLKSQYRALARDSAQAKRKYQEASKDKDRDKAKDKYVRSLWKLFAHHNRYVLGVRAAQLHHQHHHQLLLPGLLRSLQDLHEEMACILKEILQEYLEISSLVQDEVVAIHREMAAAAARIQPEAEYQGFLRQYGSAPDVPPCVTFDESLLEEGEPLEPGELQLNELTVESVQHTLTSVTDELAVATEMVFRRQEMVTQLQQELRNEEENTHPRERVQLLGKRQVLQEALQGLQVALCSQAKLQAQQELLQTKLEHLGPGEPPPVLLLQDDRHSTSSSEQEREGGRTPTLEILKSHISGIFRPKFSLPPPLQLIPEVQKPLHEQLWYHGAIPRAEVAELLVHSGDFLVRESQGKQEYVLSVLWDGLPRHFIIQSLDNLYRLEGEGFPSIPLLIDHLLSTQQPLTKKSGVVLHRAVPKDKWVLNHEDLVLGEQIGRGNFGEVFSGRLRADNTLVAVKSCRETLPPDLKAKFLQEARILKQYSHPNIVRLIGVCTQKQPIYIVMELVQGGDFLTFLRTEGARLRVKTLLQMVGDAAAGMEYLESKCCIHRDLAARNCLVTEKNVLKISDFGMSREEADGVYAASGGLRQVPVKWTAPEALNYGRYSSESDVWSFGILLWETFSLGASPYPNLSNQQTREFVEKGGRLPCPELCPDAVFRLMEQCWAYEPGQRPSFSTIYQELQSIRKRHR
For KNNDGYTDFAE [MCFD2_Y135_I136T_YF], the phosphorylation enrichment was 1.07. Sequence LITTLYISFLG [KCNQ1_Y267_G269S] has a phosphorylation enrichment of 1.98. FKEIVYAVSSD [DCX_Y70_G67E] gave a phosphorylation enrichment of 1.4. RGKDSYETSQL [SPP1_Y225] gave a phosphorylation enrichment of 0.913. With LKKLEYLNLAL [LRRC6_Y70] the phosphorylation enrichment was 1.43. QNAGDYFDLFG [PTPN11_Y62_T59A_YF] gave a phosphorylation enrichment of 1.57. Work on QSHKVYVQHLL [POR_Y604] yielded a phosphorylation enrichment of 0.971. IHSGIYYKPES [L2HGDH_Y102] gave a phosphorylation enrichment of 0.752. TEAEPYFCSLR [NPHS1_Y1138_R1140C_YF] showed a phosphorylation enrichment of 1.22. With PDNEPYIFKVF [PIK3AP1_Y553] the phosphorylation enrichment was 2.25. With LKGQVYILVRE [ASS1_Y359_G362V] the phosphorylation enrichment was 1.36. RNAAEYLLSSG [ABL1_Y139] gave a phosphorylation enrichment of 0.723. EDGCIYPGTIA [SMN1_Y109_A111G] showed a phosphorylation enrichment of 1.25. In the case of VNKIFHPDFIV [LIG3_Y768_Y768H_YF], the phosphorylation enrichment is reported as 0.871. Work on ALKWGYTVKGI [OAT_Y158_R154L] yielded a phosphorylation enrichment of 1.24. GISDEYHVIRH [GCDH_Y398] showed a phosphorylation enrichment of 0.69. For DFFDLYGGQKF [PTPN11_Y66_E69Q_YF], the phosphorylation enrichment was 0.94. FPLAEYTEVKT [ALDH1A3_Y497_A493P_YF] gave a phosphorylation enrichment of 0.968. For VSSSDYFSFVL [USP24_Y2138_Y2134S], the phosphorylation enrichment was 1.66. QEGPEYWDQNT [HLA-A_Y83_E87N] was tested, and the phosphorylation enrichment was 1.42. LSDGPYSNSFE [EPOR_Y485_P488S_YF] was tested, and the phosphorylation enrichment was 1.65. In the case of SSMIDYNTLEK [MYOC_Y479_P481T], the phosphorylation enrichment is reported as 0.748. With GEDEPYSEPYA [APBA1_Y183] the phosphorylation enrichment was 1.19. For NWGKKYPTCNS [PTPRZ1_Y53], the phosphorylation enrichment was 0.978. With HEVHIYEKSGA [ARPC1B_Y35] the phosphorylation enrichment was 1.74. FSAPNYCYRCG [PPP2CA_Y265] was tested, and the phosphorylation enrichment was 0.564. YQSKHYACIRQ [TIMP3_Y182] was tested, and the phosphorylation enrichment was 0.762. For HNVAIYEGFAL [ACTC1_Y168_P166A_YF], the phosphorylation enrichment was 1.3. Work on ILGTYYETGSI [PAX2_Y73_R71T] yielded a phosphorylation enrichment of 1.04. ILGTFYETGSI [PAX2_Y73_R71T_YF] gave a phosphorylation enrichment of 0.956. FESPRYLQVHI [FANCA_Y488] showed a phosphorylation enrichment of 1.04. In the case of REEIKYMLWLS [OTC_Y55_G50R], the phosphorylation enrichment is reported as 1.58. In the case of ANVKWYRSGRE, the phosphorylation enrichment is reported as 0.841.

Each sequence was assayed against Fyn (UniProt P06241) in the same assay as above.
Fyn, sequence (P06241 whole entry, looked up): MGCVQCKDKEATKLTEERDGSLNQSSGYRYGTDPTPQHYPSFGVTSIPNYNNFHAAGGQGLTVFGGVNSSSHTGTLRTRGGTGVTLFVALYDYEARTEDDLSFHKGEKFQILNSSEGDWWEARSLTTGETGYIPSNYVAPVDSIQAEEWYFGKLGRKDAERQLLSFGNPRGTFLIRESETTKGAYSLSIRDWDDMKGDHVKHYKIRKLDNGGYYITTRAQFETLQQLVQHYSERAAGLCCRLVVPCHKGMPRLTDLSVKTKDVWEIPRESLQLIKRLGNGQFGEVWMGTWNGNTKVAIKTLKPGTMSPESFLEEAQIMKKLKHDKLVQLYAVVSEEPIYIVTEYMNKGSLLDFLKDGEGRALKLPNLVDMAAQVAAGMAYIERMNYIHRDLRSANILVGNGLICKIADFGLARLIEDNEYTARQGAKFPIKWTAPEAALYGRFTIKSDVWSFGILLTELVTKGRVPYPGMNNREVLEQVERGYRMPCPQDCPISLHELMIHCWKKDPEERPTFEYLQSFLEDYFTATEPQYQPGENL
Work on KNNDGYTDFAE [MCFD2_Y135_I136T_YF] yielded a phosphorylation enrichment of 0.522. In the case of LITTLYISFLG [KCNQ1_Y267_G269S], the phosphorylation enrichment is reported as 0.913. FKEIVYAVSSD [DCX_Y70_G67E] showed a phosphorylation enrichment of 3.23. In the case of RGKDSYETSQL [SPP1_Y225], the phosphorylation enrichment is reported as 0.484. For LKKLEYLNLAL [LRRC6_Y70], the phosphorylation enrichment was 0.408. In the case of QNAGDYFDLFG [PTPN11_Y62_T59A_YF], the phosphorylation enrichment is reported as 0.516. QSHKVYVQHLL [POR_Y604] was tested, and the phosphorylation enrichment was 0.908. Work on IHSGIYYKPES [L2HGDH_Y102] yielded a phosphorylation enrichment of 6. Work on TEAEPYFCSLR [NPHS1_Y1138_R1140C_YF] yielded a phosphorylation enrichment of 0.544. Sequence PDNEPYIFKVF [PIK3AP1_Y553] has a phosphorylation enrichment of 0.846. In the case of LKGQVYILVRE [ASS1_Y359_G362V], the phosphorylation enrichment is reported as 0.343. For RNAAEYLLSSG [ABL1_Y139], the phosphorylation enrichment was 0.35. Work on EDGCIYPGTIA [SMN1_Y109_A111G] yielded a phosphorylation enrichment of 0.595. Sequence VNKIFHPDFIV [LIG3_Y768_Y768H_YF] has a phosphorylation enrichment of 0.447. ALKWGYTVKGI [OAT_Y158_R154L] showed a phosphorylation enrichment of 0.519. GISDEYHVIRH [GCDH_Y398] was tested, and the phosphorylation enrichment was 0.64. DFFDLYGGQKF [PTPN11_Y66_E69Q_YF] gave a phosphorylation enrichment of 7.17. FPLAEYTEVKT [ALDH1A3_Y497_A493P_YF] showed a phosphorylation enrichment of 0.502. With VSSSDYFSFVL [USP24_Y2138_Y2134S] the phosphorylation enrichment was 5.34. With QEGPEYWDQNT [HLA-A_Y83_E87N] the phosphorylation enrichment was 0.6. With LSDGPYSNSFE [EPOR_Y485_P488S_YF] the phosphorylation enrichment was 1.23. In the case of SSMIDYNTLEK [MYOC_Y479_P481T], the phosphorylation enrichment is reported as 0.452. With GEDEPYSEPYA [APBA1_Y183] the phosphorylation enrichment was 0.55. Work on NWGKKYPTCNS [PTPRZ1_Y53] yielded a phosphorylation enrichment of 0.523. With HEVHIYEKSGA [ARPC1B_Y35] the phosphorylation enrichment was 1.01. FSAPNYCYRCG [PPP2CA_Y265] showed a phosphorylation enrichment of 0.458. Sequence YQSKHYACIRQ [TIMP3_Y182] has a phosphorylation enrichment of 0.418. HNVAIYEGFAL [ACTC1_Y168_P166A_YF] gave a phosphorylation enrichment of 13.3. ILGTYYETGSI [PAX2_Y73_R71T] was tested, and the phosphorylation enrichment was 4.14. In the case of ILGTFYETGSI [PAX2_Y73_R71T_YF], the phosphorylation enrichment is reported as 0.524. In the case of FESPRYLQVHI [FANCA_Y488], the phosphorylation enrichment is reported as 0.408. REEIKYMLWLS [OTC_Y55_G50R] gave a phosphorylation enrichment of 0.661. ANVKWYRSGRE was tested, and the phosphorylation enrichment was 0.43.
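Further: 11-residue human phosphosite peptides and single-mutation variants displayed on the E. coli surface, counted by deep sequencing, each peptide's frequency after selection divided by its frequency in the unselected input library; frequency after pTyr selection over input frequency; kinase dosed for 20-30% of maximal phosphorylation in three min.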
